The source of these data is article PMC5557850.

The target of test [1] is FapF coiled-coil peptide D3–Q40 (Pseudomonas sp. UK4). The experiment in a line: SEC-MALS; Superdex 200 HR 10/30 column coupled to multiple laser light scattering; isolated coiled-coil peptide.
The target of test [2] is full-length FapF (FapF 1–406) (Pseudomonas sp. UK4). The experiment in a line: native MS; 0.5 M ammonium acetate pH 7.6 with 0.5% C8E4; nano-electrospray, modified Q-Exactive.
Test [3] shares this target.

The term stoichiometry N denotes the number of molecules, sites or subunits per partner or assembly. FapF coiled-coil peptide D3–Q40 registered a stoichiometry N in test [1] of 3. In the case of “full-length FapF (FapF 1–406) (natural protein)”, the stoichiometry N in test [2] was 3. In test [3], this substance yielded a single-channel current recording in planar DPhPC bilayers: voltage-induced gating at an applied potential of −250 mV of 3 steps.
